T1: ASIC1a (Homo sapiens, UniProt P78348)
T1 construct: expressed in transfected cells
T1 sequence (P78348 1-528): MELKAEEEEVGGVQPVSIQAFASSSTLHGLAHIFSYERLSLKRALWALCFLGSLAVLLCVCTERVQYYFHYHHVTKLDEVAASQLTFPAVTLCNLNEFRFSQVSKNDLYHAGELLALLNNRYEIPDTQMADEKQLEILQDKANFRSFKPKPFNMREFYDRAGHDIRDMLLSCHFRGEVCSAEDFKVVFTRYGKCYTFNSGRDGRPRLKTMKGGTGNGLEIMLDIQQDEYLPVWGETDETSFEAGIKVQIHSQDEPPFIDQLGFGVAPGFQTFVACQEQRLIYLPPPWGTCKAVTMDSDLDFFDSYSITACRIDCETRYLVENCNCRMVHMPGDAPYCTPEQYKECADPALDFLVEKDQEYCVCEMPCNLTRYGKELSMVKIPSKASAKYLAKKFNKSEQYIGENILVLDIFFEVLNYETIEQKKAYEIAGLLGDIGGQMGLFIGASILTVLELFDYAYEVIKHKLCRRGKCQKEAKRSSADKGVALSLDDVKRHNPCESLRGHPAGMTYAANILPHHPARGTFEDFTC

T2: recombinant extracellular domain of hASIC1a (hASIC1a-ECD) (human, UniProt P78348 67-427, limits assumed)
T2 construct: extracellular domain; ASIC1a is one splice isoform of it; also called trimeric ectodomain of hASIC1a
T2 sequence (looked up): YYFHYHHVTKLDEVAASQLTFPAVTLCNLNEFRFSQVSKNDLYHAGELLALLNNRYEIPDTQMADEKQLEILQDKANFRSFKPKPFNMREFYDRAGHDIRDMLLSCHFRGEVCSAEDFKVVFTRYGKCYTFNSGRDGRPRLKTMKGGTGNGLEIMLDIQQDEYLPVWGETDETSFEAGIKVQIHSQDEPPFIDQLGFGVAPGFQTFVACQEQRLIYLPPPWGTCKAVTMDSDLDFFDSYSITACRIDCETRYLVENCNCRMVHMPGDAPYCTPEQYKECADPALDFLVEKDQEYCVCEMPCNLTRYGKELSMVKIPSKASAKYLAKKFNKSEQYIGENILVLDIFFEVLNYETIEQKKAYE


What follows are molecules tested against T1, ASIC1a (assay: Patch clamp whole-cell recording of acid-induced hASIC1a currents). Details: 100 nM antibody.
Format: cell-based
Method: FIGS. 4A-4E show the effect of affinity-matured ASC06-IgG1 derivative antibodies on the hASIC1a currents. Shown are the representative current traces recorded from single CHO-K1 cells stably expressing hASIC1a in the absence or presence of 100 nM ASC06-IgG1 (FIG. 4A) or affinity-matured ASC06-IgG1 versions ASC06-01-IgG1 (FIG. 4B), ASC06-02-IgG1 (FIG. 4C), ASC06-03-IgG1 (FIG. 4D), or ASC06-04-IgG1 (FIG. 4E). Amiloride (30 μM) was used as a positive control. “Wash” represents the recovery of the current after the treatment of 100 nM indicated antibody followed by 15 min infusion of washing solution.
Whether the affinity-matured ASC06-IgG1 derivative antibodies have an effect on the acid-induced, hASIC1a-mediated electrical current in cells was tested. An hASIC1a overexpressing stable cell line was used as a model for these studies. Extracellular pH was decreased from pH 7.4 to pH 6.0 and the amplitudes of the hASIC1a-mediated inward currents were recorded in the whole-cell recording mode in the presence of the affinity-matured ASC06-IgG1 derivative antibodies (FIGS. 4A-4E). The ASIC1a inhibitor amiloride (30 μM) was used as a positive control for the inhibition of ASIC1a currents.

| Molecule | blockage of ASIC1a-mediated currents compared to ASC06-IgG1 |
| --- | --- |
| ASC06-03-IgG1: affinity-matured ASC06 derivative, VH-CDR3 DSFYGRAKGS (SEQ ID NO: 15) (antibody, V domains shown) VH: QVQLQQSGGGLVQPGGSLRLSCAASGFTFSSYAMSWVRQAPGKGLEWVSAISGSGGSTYYADSVKGRFTISRDNSKNTLYLQMNSLRAEDTAVYYCAKDSFYGRAKGSWGQGTLVTVSS VL: QSALTQPASVSGSPGQSITISCTGTSSDVGAYNYVSWYQQQPGKAPKLMIYGVSNRPSGVSNRFSGSKSGNAASLTISGLQAEDEADYYCSSYTSSSTYVFGTGTKLTVLG | stronger blockage |
| ASC06-04-IgG1: affinity-matured ASC06 derivative, VH-CDR3 DSFYGRAKGV (SEQ ID NO: 17) (antibody, V domains shown) VH: QVQLQQSGGGLVQPGGSLRLSCAASGFTFSSYAMSWVRQAPGKGLEWVSAISGSGGSTYYADSVKGRFTISRDNSKNTLYLQMNSLRAEDTAVYYCAKDSFYGRAKGVWGQGTLVTVSS VL: QSALTQPASVSGSPGQSITISCTGTSSDVGAYNYVSWYQQQPGKAPKLMIYGVSNRPSGVSNRFSGSKSGNAASLTISGLQAEDEADYYCSSYTSSSTYVFGTGTKLTVLG | stronger blockage |
| ASC06-02-IgG1: affinity-matured ASC06 derivative, VH-CDR3 DSFFGRAKGS (SEQ ID NO: 13) (antibody, V domains shown) VH: QVQLQQSGGGLVQPGGSLRLSCAASGFTFSSYAMSWVRQAPGKGLEWVSAISGSGGSTYYADSVKGRFTISRDNSKNTLYLQMNSLRAEDTAVYYCAKDSFFGRAKGSWGQGTLVTVSS VL: QSALTQPASVSGSPGQSITISCTGTSSDVGAYNYVSWYQQQPGKAPKLMIYGVSNRPSGVSNRFSGSKSGNAASLTISGLQAEDEADYYCSSYTSSSTYVFGTGTKLTVLG | stronger blockage |

Same assay, conditions: 300 nM antibody; pH 7.4 to pH 6.0; mean ± standard deviation

| Molecule | Percent inhibition of the acid induced-hASIC1a currents [%] |
| --- | --- |
| ASC06-04-IgG1: affinity-matured ASC06 derivative, VH-CDR3 DSFYGRAKGV (SEQ ID NO: 17) (antibody, V domains shown) VH: QVQLQQSGGGLVQPGGSLRLSCAASGFTFSSYAMSWVRQAPGKGLEWVSAISGSGGSTYYADSVKGRFTISRDNSKNTLYLQMNSLRAEDTAVYYCAKDSFYGRAKGVWGQGTLVTVSS VL: QSALTQPASVSGSPGQSITISCTGTSSDVGAYNYVSWYQQQPGKAPKLMIYGVSNRPSGVSNRFSGSKSGNAASLTISGLQAEDEADYYCSSYTSSSTYVFGTGTKLTVLG | 96.8 ± 3.4 |

What follows are molecules tested against T2, recombinant extracellular domain of … (assay: SPR, Biacore T200, hASIC1a-ECD immobilized, IgG1 as analyte). Details: not given.
Method: Binding affinities of four affinity-matured antibodies in IgG1 format (ASC06-01-IgG1 through ASC06-04-IgG1) to the recombinant extracellular domain of hASIC1a(hASIC1a-ECD) were measured using the Biacore T200™ (GE Healthcare). The ASC06-IgG1 antibody was used as a positive control. All manipulations were followed by the user guide of manufacturer. Briefly, was hASIC1a was immobilized, and serial dilutions of the indicated antibodies were added as analytes. The analysis of the results were processed in BIA Evaluation Software™.

| Molecule | Kd [nM] | koff [s⁻¹] | kon [M⁻¹ s⁻¹] |
| --- | --- | --- | --- |
| ASC06-03-IgG1 (antibody, V domains shown, Full length IgG1) VH: QVQLQQSGGGLVQPGGSLRLSCAASGFTFSSYAMSWVRQAPGKGLEWVSAISGSGGSTYYADSVKGRFTISRDNSKNTLYLQMNSLRAEDTAVYYCAKDSFYGRAKGSWGQGTLVTVSS VL: QSALTQPASVSGSPGQSITISCTGTSSDVGAYNYVSWYQQQPGKAPKLMIYGVSNRPSGVSNRFSGSKSGNAASLTISGLQAEDEADYYCSSYTSSSTYVFGTGTKLTVLG | 0.12 | 8.2e-05 | 680000 |
| ASC06-04-IgG1 (antibody, V domains shown, Full length IgG1) VH: QVQLQQSGGGLVQPGGSLRLSCAASGFTFSSYAMSWVRQAPGKGLEWVSAISGSGGSTYYADSVKGRFTISRDNSKNTLYLQMNSLRAEDTAVYYCAKDSFYGRAKGVWGQGTLVTVSS VL: QSALTQPASVSGSPGQSITISCTGTSSDVGAYNYVSWYQQQPGKAPKLMIYGVSNRPSGVSNRFSGSKSGNAASLTISGLQAEDEADYYCSSYTSSSTYVFGTGTKLTVLG | 0.26 | 0.000163 | 620000 |
| ASC06-01-IgG1 (antibody, V domains shown, Full length IgG1) VH: QVQLQQSGGGLVQPGGSLRLSCAASGFTFSSYAMSWVRQAPGKGLEWVSAISGSGGSTYYADSVKGRFTISRDNSKNTLYLQMNSLRAEDTAVYYCAKDSYFGYSKGDWGQGTLVTVSS VL: QSALTQPASVSGSPGQSITISCTGTSSDVGAYNYVSWYQQQPGKAPKLMIYGVSNRPSGVSNRFSGSKSGNAASLTISGLQAEDEADYYCSSYTSSSTYVFGTGTKLTVLG | 0.1 | 0.000997 | 9.7e+06 |
| ASC06-02-IgG1 (antibody, V domains shown, Full length IgG1) VH: QVQLQQSGGGLVQPGGSLRLSCAASGFTFSSYAMSWVRQAPGKGLEWVSAISGSGGSTYYADSVKGRFTISRDNSKNTLYLQMNSLRAEDTAVYYCAKDSFFGRAKGSWGQGTLVTVSS VL: QSALTQPASVSGSPGQSITISCTGTSSDVGAYNYVSWYQQQPGKAPKLMIYGVSNRPSGVSNRFSGSKSGNAASLTISGLQAEDEADYYCSSYTSSSTYVFGTGTKLTVLG | 0.0125 | 0.000168 | 1.3e+07 |
| ASC06-IgG1 (antibody, V domains shown, Tested as full length IgG1; also called WT antibody ASC06-IgG1; parental ASC06-IgG1 antibody) VH: QVQLQQSGGGLVQPGGSLRLSCAASGFTFSSYAMSWVRQAPGKGLEWVSAISGSGGSTYYADSVKGRFTISRDNSKNTLYLQMNSLRAEDTAVYYCAKDSFYGYSKGDWGQGTLVTVSS VL: QSALTQPASVSGSPGQSITISCTGTSSDVGAYNYVSWYQQQPGKAPKLMIYGVSNRPSGVSNRFSGSKSGNAASLTISGLQAEDEADYYCSSYTSSSTYVFGTGTKLTVLG | 0.28 | 0.0013 | 4.7e+06 |
